Measured values: patent publication US20200024639A1

Molecular target: HA-NanoLuc-VAMP2 (UniProt P63027)
Experiment: cell-based or functional assay

Sequence of UniProt P63027 (P63027 1-116, tags or fused parts left off): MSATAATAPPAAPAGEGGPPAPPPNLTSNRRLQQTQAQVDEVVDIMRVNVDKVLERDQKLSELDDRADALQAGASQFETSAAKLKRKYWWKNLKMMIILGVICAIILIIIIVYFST

botulinum neurotoxin type B (from UniProt P10844 2-1291) (enzyme)
cleavage of the reporter in SiMa cells, immunoblot with total VAMP2 antibody: 10 nM
